Assay results as given in PMC9513230, “Inhibition of Plasmodium falciparum Hsp70-Hop partnership by 2-phenylthynesulfonamide” (Frontiers in Molecular Biosciences, 2022).
Read-outs that look alike come from different tables or passages of the source.

Experiments:
[1] = molecular target: PfHsp70-1-PfHop association (Plasmodium falciparum, UniProt Q8IB24+Q8ILC1); assay: ELISA for the direct association of PfHsp70-1 and PfHop; type: biochemical; details: for Effect on association of PfHsp70-1 and PfHop: 25 µM nucleotide or inhibitor
Description: An enzyme-linked immunosorbent assay (ELISA) was used to validate the effect of PES on the direct association of PfHsp70-1 and PfHop following a previously described protocol ([Mabate et al., 2018]). Briefly, ligand (5 μg/ml of PfHsp70-1) suspended in 5 mM sodium bicarbonate (NaHCO3) at pH 9.5 was noncovalently immobilized onto a 96 well plate overnight at 4 C. BSA (5 μg/ml) was used as a ligand for the negative control. The wells were washed with 150 µl TBST which contains (Tris-buffered saline- Tween (TBST; 20 mM Tris HCl, pH 7.5, 500 mM NaCl supplemented with 0.1% Tween 20) prior to blocking with 5% fat-free milk in TBST and incubated at 25 C for 1 h. The wells were washed using TBST for a total of 10 min. Varying concentrations (0–1,000 nM) of analyte PfHop were added to the wells and incubated for 2 h at 25 °C. To remove the unbound analyte, the plate was washed with 150 µl TBST three times before the addition of rabbit-raised α-PfHop antibody (1: 4,000) followed by incubation at 25°C for 1 h. Subsequently, the wells were washed with 150 µl TBST three times before the addition of 100 µl secondary HRP conjugated goat-raised α-rabbit antibody (1: 4,000) and incubated for 45 min at 25 °C. The substrate, 3,3’5,5’ –tetramethylbenzidine (TMB) (Bio Scientific, United States) was added into the wells and incubated for 2 min at 25 C. Color development was monitored by recording absorbance readings at 370 nm at 5 min time intervals for 30 min using a SpectraMax M3 Microplate reader (Molecular Devices, United States). To determine the effect of the inhibitor, the assay was conducted in the presence of 25 µM) of PES. […] Furthermore, the assay was repeated interchanging the ligand and analyte to validate data reproducibility. The generated data were analyzed taking into account the background signal generated by BSA which served as the control protein. The absorbance values obtained at the highest concentration of each analyte were averaged to represent maximum (100%) binding. Titration curves were then generated using GraphPad Prism 9.3.1 (GraphPad Software, United States). The relative binding affinities of PES under each experimental setting were normalized relative to the affinity estimated for assay conducted in the absence of nucleotide at the highest concentration of PfHop. Statistical analysis was conducted to establish significant differences at p < 0.05 using a student t-test.

PfHop = molecular target: T1, PfHop (Plasmodium falciparum, UniProt Q8ILC1); assay: SPR equilibrium binding to immobilized PfHop
T1 construct: His; made in house; host or cells: E. coli XL1 Blue
T1 sequence (Q8ILC1 1-564): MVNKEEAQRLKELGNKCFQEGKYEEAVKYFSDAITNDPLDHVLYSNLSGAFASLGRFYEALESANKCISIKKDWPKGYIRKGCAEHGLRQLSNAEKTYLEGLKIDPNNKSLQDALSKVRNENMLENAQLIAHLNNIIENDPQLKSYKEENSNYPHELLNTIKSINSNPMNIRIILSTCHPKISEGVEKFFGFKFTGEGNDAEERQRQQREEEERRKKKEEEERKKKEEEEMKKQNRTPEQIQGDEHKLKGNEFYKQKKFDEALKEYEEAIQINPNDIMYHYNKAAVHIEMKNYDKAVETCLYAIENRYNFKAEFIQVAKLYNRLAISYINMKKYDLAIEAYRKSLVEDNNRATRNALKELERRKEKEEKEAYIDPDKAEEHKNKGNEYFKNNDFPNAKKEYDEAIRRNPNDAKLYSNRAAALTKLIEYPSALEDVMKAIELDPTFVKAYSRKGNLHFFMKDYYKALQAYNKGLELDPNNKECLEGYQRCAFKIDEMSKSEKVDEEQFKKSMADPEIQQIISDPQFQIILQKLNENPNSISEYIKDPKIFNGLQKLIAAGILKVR
Description: The steady-state equilibrium binding kinetics for the inhibitors on either PfHsp70-1 or PfHop were investigated using BioNavis Navi 420A ILVES multi-parametric surface plasmon resonance (MP-SPR) system (BioNavis, Finland) following a previously described method ([Lebepe et al., 2020]; [Chakafana et al., 2021]). Briefly, filter-sterilized de-gassed PBS (4.3 mM Na2HPO4, 1.4 mM KH2PO4, 137 mM NaCl, 3 mM KCl, 0.005% (v/v) Tween 20, and 20 mM EDTA; pH 7.4) was used as running buffer for the assay. The ligand (0.1 μg/ml of PfHsp70-1/PfHop) was immobilized onto a carboxymethyl dextran (CMD 3-D) gold sensor chip through amine coupling. PES was injected (flow rate of 50 μl/min) as analyte at varying final concentrations (0, 1.25, 2.5, 5, 10, 20 nM). […] Steady-state equilibrium was achieved after allowing the interaction to occur for 8 min at 25°C, followed by dissociation for 4 min at 25°C, respectively. The data generated were analyzed using Data Viewer (BioNavis, Finland) after subtraction of baseline (signals generated on the chip surface without protein immobilized and buffer without inhibitor). The resultant sensorgrams were analyzed to determine the equilibrium binding affinities using Trace Drawer software version 1.8 (Ridgeview Instruments; Sweden).

[2] = test system: Asexual P. falciparum strain 3D7 parasites; assay: Parasite growth inhibition assay (SYBR Gold); type: cell-based; details: Plasmodium falciparum, 3D7, 96 h, read-out: IC50 parasite growth
Description: Parasite growth without any drug present, which allowed the parasites to proliferate unrestricted, was used as negative drug control. SYBRTM Gold DNA stain (Invitrogen, ThermoFisher Scientific Inc., Germany) was used to measure the proliferation of the parasites compared to the controls as previously described ([[…] al., 2004]). Fluorescence was measured using a TECAN Spark® multimode microplate reader (Tecan Trading AG, Switzerland) and the data were analyzed using SigmaPlot, version 12 (Systat Software Inc., IL, United States).

[3] = test system: Asexual P. falciparum strain 3D7 parasites; details: read-out: IC50 published potency, ref Smilkstein et al., 2004; cited from earlier work
[4] = molecular target: T2, Plasmodium falciparum Hsp70-1 (Plasmodium falciparum, UniProt Q8IB24 1-677); assay: SPR; ligand and analyte switched: PfHop immobilised, PfHsp70-1 analyte; with ADP; bivalent fit model; details: both partners purified
T2 construct: Plasmodium falciparum Hsp70-1 (PF3D7_0818900), cytosolic Hsp70; also called PfHsp70-1; PF3D7_0818900

[5] = molecular target: T2, Plasmodium falciparum Hsp70-1; assay: SPR; ligand and analyte switched: PfHop immobilised, PfHsp70-1 analyte; with ATP; bivalent fit model; details: both partners purified
[6] = molecular target: T2, Plasmodium falciparum Hsp70-1; assay: SPR; ligand and analyte switched: PfHop immobilised, PfHsp70-1 analyte; with PES; bivalent fit model; details: both partners purified
[7] = molecular target: T2, Plasmodium falciparum Hsp70-1; assay: SPR; ligand and analyte switched: PfHop immobilised, PfHsp70-1 analyte; with EGCG; bivalent fit model; details: both partners purified
[8] = molecular target: T2, Plasmodium falciparum Hsp70-1; assay: SPR; PfHsp70-1 immobilised as ligand; PfHop analyte 0-2000 nM, 25 C, PBS; with 25 uM ADP; bivalent fit model; details: both partners purified
[9] = molecular target: T2, Plasmodium falciparum Hsp70-1; assay: SPR; PfHsp70-1 immobilised as ligand; PfHop analyte 0-2000 nM, 25 C, PBS; with 25 uM ATP; bivalent fit model; details: both partners purified
[10] = molecular target: T2, Plasmodium falciparum Hsp70-1; assay: SPR; PfHsp70-1 immobilised as ligand; PfHop analyte 0-2000 nM, 25 C, PBS; with 25 uM PES; bivalent fit model; details: both partners purified
[11] = molecular target: T2, Plasmodium falciparum Hsp70-1; assay: SPR; PfHsp70-1 immobilised as ligand; PfHop analyte 0-2000 nM, 25 C, PBS; with 25 uM EGCG; bivalent fit model; details: both partners purified
[12] = molecular target: T2, Plasmodium falciparum Hsp70-1; assay: SPR; ligand and analyte switched: PfHop immobilised, PfHsp70-1 analyte; no nucleotide or inhibitor (NN); bivalent fit model; details: both partners purified
[13] = molecular target: T2, Plasmodium falciparum Hsp70-1; assay: SPR; PfHsp70-1 immobilised as ligand; PfHop analyte 0-2000 nM, 20 ul/min, 25 C, PBS; no nucleotide or inhibitor (NN); bivalent fit model; details: both partners purified

## Nc1ncnc2c1ncn2[C@@H]1O[C@H](COP(=O)(O)OP(=O)(O)O)[C@@H](O)[C@H]1O [ADP]
[1]
  Effect on association of PfHsp70-1 and PfHop: promoted the association

## Nc1ncnc2c1ncn2[C@@H]1O[C@H](COP(=O)(O)OP(=O)(O)OP(=O)(O)O)[C@@H](O)[C@H]1O [ATP]
PfHop
  Kd: 861 ± 10 nM
[1]
  Effect on association of PfHsp70-1 and PfHop: abrogated the association

## O=C(O[C@@H]1Cc2c(O)cc(O)cc2O[C@@H]1c1cc(O)c(O)c(O)c1)c1cc(O)c(O)c(O)c1 [EGCG, (−)-Epigallocatechin-3-gallate]
[1]; ligand PfHop, analyte PfHsp70-1
  IC50: 14.6 ± 1.8 nM
[1]; ligand PfHsp70-1, analyte PfHop
  IC50: 13.9 ± 1.2 nM

## CCN(CC)CCCC(C)Nc1ccnc2cc(Cl)ccc12 (stereo not shown) [chloroquine]
[2]
  IC50: 29.1 ± 1.3 nM
[3]
  IC50: 21 ± 1.7 nM

B1: Plasmodium falciparum Hsp90-Hsp70 organizing protein (natural protein, UniProt Q8ILC1 1-564, looked up)
chain: MVNKEEAQRLKELGNKCFQEGKYEEAVKYFSDAITNDPLDHVLYSNLSGAFASLGRFYEALESANKCISIKKDWPKGYIRKGCAEHGLRQLSNAEKTYLEGLKIDPNNKSLQDALSKVRNENMLENAQLIAHLNNIIENDPQLKSYKEENSNYPHELLNTIKSINSNPMNIRIILSTCHPKISEGVEKFFGFKFTGEGNDAEERQRQQREEEERRKKKEEEERKKKEEEEMKKQNRTPEQIQGDEHKLKGNEFYKQKKFDEALKEYEEAIQINPNDIMYHYNKAAVHIEMKNYDKAVETCLYAIENRYNFKAEFIQVAKLYNRLAISYINMKKYDLAIEAYRKSLVEDNNRATRNALKELERRKEKEEKEAYIDPDKAEEHKNKGNEYFKNNDFPNAKKEYDEAIRRNPNDAKLYSNRAAALTKLIEYPSALEDVMKAIELDPTFVKAYSRKGNLHFFMKDYYKALQAYNKGLELDPNNKECLEGYQRCAFKIDEMSKSEKVDEEQFKKSMADPEIQQIISDPQFQIILQKLNENPNSISEYIKDPKIFNGLQKLIAAGILKVR
notes: Plasmodium falciparum Hsp90-Hsp70 organizing protein, PfHop (PF3D7_1434300); also called PfHop; PF3D7_1434300
[4]
  Kd: 3.1 nM
  koff: 0.025 s⁻¹
  kon: 8.07e+06 M⁻¹ s⁻¹
[5]
  Kd: 80.9 nM
  koff: 0.0215 s⁻¹
  kon: 266000 M⁻¹ s⁻¹
[6]
  Kd: 232 nM
  koff: 0.00811 s⁻¹
  kon: 35000 M⁻¹ s⁻¹
[7]
  Kd: 1360 nM
  koff: 0.00914 s⁻¹
  kon: 6710 M⁻¹ s⁻¹
[8]
  Kd: 3.08 nM
  koff: 0.00308 s⁻¹
  kon: 781000 M⁻¹ s⁻¹
[9]
  Kd: 79.8 nM
  koff: 0.0207 s⁻¹
  kon: 259000 M⁻¹ s⁻¹
[10]
  Kd: 214 nM
  koff: 0.0266 s⁻¹
  kon: 125000 M⁻¹ s⁻¹
[11]
  Kd: 20.7 µM
  koff: 0.13 s⁻¹
  kon: 6310 M⁻¹ s⁻¹
[12]
  Kd: 4.49 nM
  koff: 0.0341 s⁻¹
  kon: 7.6e+06 M⁻¹ s⁻¹
[13]
  Kd: 4.24 nM
  koff: 0.00325 s⁻¹
  kon: 767000 M⁻¹ s⁻¹
